# Experimental data published in article PMC9482650, “Quantitative fragmentomics allow affinity mapping of interactomes” (Nature Communications, 2022).
# T1: APBA1_1, Q02410
# T1 sequence (Q02410 651-752, limits assumed, looked up): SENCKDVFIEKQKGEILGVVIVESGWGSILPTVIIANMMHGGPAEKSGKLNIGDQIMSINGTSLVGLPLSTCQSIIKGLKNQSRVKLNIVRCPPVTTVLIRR
# T2: DLG3_3, Q92796
# T2 sequence (Q92796 374-475, limits assumed, looked up): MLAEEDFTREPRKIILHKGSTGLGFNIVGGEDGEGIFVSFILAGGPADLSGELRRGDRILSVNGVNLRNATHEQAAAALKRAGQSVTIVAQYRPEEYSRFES
# T3: GRIP1_2, Q9Y3R0
# T3 sequence (Q9Y3R0 145-248, limits assumed, looked up): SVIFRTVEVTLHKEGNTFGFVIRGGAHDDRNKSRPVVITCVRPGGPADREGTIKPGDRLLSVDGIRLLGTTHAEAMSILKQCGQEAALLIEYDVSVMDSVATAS
# T4: GRIP1_7, Q9Y3R0
# T4 sequence (Q9Y3R0 999-1096, limits assumed, looked up): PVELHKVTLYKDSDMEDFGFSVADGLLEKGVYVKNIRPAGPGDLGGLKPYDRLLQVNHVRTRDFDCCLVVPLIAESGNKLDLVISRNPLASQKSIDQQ
# T5: LIN7B, Q9HAP6
# T5 sequence (Q9HAP6 88-185, limits assumed, looked up): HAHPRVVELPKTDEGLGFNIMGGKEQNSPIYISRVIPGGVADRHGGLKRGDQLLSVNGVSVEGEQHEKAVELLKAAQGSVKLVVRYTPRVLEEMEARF
# T6: LIN7C, Q9NUP9
# T6 sequence (Q9NUP9 88-185, limits assumed, looked up): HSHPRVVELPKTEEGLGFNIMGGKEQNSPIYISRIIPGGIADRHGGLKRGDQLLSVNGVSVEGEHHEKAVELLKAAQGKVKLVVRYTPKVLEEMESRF
# T7: SNTG2, Q9NY99
# T7 sequence (Q9NY99 68-166, limits assumed, looked up): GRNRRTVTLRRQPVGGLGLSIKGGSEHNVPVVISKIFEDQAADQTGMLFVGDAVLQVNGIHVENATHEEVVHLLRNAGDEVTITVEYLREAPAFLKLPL
# T8: TJP3_3, O95049
# T8 sequence (O95049 375-456, limits assumed, looked up): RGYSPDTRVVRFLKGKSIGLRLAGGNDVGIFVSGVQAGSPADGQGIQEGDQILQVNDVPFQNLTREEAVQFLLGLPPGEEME
# How the values were obtained:
# Assay in all cases: holdup assay
# Design in all cases: key: below the threshold = too weak to quantify, mostly under pKd 3.1 to 4
# [1] = molecular target: AHNAK1, Q09666
# Chain of AHNAK1, Q09666 (Q09666 4-100): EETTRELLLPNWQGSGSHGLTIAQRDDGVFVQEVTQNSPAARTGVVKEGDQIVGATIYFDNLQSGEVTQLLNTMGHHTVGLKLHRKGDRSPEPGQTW
# [2] = molecular target: T1, APBA1_1, Q02410
# [3] = molecular target: ARHGEF12, Q9NZN5-2
# Chain of ARHGEF12, Q9NZN5-2 (Q9NZN5 other isoform, or with tags, fused parts or gaps): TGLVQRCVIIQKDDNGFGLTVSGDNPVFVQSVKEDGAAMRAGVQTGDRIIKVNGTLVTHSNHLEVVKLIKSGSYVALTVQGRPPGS
# [4] = molecular target: CASK, O14936
# Chain of CASK, O14936 (O14936 487-570): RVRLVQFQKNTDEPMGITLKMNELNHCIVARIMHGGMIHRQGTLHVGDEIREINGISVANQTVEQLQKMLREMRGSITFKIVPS
# [5] = molecular target: T2, DLG3_3, Q92796
# [6] = molecular target: GORASP1, Q9BQQ3
# Chain of GORASP1, Q9BQQ3 (Q9BQQ3 1-208): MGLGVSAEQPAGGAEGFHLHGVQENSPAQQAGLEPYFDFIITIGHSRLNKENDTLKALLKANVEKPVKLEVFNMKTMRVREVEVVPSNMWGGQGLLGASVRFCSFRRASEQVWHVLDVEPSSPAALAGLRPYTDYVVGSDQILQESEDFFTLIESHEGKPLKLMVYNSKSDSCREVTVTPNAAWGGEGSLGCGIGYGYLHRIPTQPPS
# [7] = molecular target: T3, GRIP1_2, Q9Y3R0
# [8] = molecular target: T4, GRIP1_7, Q9Y3R0
# [9] = molecular target: HTRA2, O43464
# Chain of HTRA2, O43464 (O43464 355-458): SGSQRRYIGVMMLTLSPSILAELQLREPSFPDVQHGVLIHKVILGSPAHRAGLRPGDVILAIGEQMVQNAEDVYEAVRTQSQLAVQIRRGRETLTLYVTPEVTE
# [10] = molecular target: Inadl_1, Q8NI35
# Chain of Inadl_1, Q8NI35 (Q8NI35 113-229): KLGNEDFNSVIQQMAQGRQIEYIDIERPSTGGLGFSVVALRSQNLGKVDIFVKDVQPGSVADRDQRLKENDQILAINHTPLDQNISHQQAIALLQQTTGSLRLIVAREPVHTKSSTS
# [11] = molecular target: Inadl_8, Q8NI35
# Chain of Inadl_8, Q8NI35 (Q8NI35 1425-1530): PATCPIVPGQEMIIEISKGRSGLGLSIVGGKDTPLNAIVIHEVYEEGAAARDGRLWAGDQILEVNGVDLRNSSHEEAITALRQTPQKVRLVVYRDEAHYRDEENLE
# [12] = molecular target: T5, LIN7B, Q9HAP6
# [13] = molecular target: T6, LIN7C, Q9NUP9
# [14] = molecular target: LNX1_1, Q8TBB1
# Chain of LNX1_1, Q8TBB1 (Q8TBB1 261-371): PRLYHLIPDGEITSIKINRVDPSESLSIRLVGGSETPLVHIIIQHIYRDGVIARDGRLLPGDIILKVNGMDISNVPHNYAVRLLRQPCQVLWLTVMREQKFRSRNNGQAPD
# [15] = molecular target: MAGI2_3, Q86UL8
# Chain of MAGI2_3, Q86UL8 (Q86UL8 600-682): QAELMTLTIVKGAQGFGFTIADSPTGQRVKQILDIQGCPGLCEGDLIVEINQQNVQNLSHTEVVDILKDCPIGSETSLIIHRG
# [16] = molecular target: MAGI2_5, Q86UL8
# Chain of MAGI2_5, Q86UL8 (Q86UL8 915-1017): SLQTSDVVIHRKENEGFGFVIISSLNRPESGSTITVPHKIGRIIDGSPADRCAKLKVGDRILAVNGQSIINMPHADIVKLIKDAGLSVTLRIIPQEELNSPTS
# [17] = molecular target: MAGI3_2, Q5TCQ9
# Chain of MAGI3_2, Q5TCQ9 (Q5TCQ9 398-503): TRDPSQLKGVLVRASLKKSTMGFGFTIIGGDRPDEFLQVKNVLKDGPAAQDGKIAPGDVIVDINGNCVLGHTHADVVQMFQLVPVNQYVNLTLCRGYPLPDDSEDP
# [18] = molecular target: MAST1, Q9Y2H9
# Chain of MAST1, Q9Y2H9 (Q9Y2H9 962-1065): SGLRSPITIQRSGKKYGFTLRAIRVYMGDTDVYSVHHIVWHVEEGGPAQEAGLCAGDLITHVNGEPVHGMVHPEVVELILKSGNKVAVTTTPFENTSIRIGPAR
# [19] = molecular target: MAST2, Q6P0Q8
# Chain of MAST2, Q6P0Q8 (Q6P0Q8 1099-1202): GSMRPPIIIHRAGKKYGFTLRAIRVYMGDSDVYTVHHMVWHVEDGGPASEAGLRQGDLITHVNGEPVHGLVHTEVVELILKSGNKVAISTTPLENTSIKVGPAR
# [20] = molecular target: NHERF2_2, Q15599
# Chain of NHERF2_2, Q15599 (Q15599 142-238): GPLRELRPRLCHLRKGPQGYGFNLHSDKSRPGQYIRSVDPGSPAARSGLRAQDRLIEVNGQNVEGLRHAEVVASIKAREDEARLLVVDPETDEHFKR
# [21] = molecular target: NHERF4_1, Q86UT5-2
# Chain of NHERF4_1, Q86UT5-2 (Q86UT5 other isoform, or with tags, fused parts or gaps): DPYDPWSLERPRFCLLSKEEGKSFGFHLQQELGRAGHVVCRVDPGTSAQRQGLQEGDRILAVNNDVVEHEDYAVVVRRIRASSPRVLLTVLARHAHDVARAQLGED
# [22] = molecular target: PARD3_3, Q8TEW0
# Chain of PARD3_3, Q8TEW0 (Q8TEW0 582-685): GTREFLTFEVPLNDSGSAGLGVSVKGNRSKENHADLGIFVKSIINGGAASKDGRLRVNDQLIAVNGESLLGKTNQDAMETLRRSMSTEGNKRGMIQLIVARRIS
# [23] = molecular target: PDLIM1, O00151
# Chain of PDLIM1, O00151 (O00151 1-87): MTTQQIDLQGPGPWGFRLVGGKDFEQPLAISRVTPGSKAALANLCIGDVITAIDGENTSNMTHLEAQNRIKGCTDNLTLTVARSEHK
# [24] = molecular target: PTPN3, P26045
# Chain of PTPN3, P26045 (P26045 505-587): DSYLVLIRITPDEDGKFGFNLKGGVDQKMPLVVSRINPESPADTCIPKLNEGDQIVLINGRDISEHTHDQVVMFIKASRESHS
# [25] = molecular target: SCRIB_1, Q14160
# Chain of SCRIB_1, Q14160 (Q14160 718-814): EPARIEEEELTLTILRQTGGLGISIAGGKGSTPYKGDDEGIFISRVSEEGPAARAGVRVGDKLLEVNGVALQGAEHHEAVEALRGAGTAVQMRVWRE
# [26] = molecular target: SCRIB_2, Q14160
# Chain of SCRIB_2, Q14160 (Q14160 857-960): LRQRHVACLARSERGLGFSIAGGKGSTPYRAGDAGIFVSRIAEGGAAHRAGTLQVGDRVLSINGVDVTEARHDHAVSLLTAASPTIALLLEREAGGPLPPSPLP
# [27] = molecular target: SCRIB_3, Q14160
# Chain of SCRIB_3, Q14160 (Q14160 999-1103): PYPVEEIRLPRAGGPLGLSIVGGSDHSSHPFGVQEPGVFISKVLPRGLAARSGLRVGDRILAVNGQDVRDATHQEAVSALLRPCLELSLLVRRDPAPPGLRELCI
# [28] = molecular target: T7, SNTG2, Q9NY99
# [29] = molecular target: SNX27, Q96L92
# [30] = molecular target: TJP1_2, Q07157
# Chain of TJP1_2, Q07157 (Q07157 181-274): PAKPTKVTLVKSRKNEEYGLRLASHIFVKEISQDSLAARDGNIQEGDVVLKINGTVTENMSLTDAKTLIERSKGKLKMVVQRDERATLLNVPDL
# [31] = molecular target: T8, TJP3_3, O95049
# [32] = plain residues with an end cap or a label only (N-terminal biotin on a linker: ttds)
# [33] = plain residues with an end cap or a label only (N-terminal biotin on a linker: ado-ado)
binder,measurement,setting,value
"LDSQIQETSI [MAP4, P27816]",pKd,[1]; [32],below the threshold
same,pKd,[2]; [32],below the threshold
same,pKd,[3]; [32],4.33
same,pKd,[4]; [32],below the threshold
same,pKd,[5]; [32],3.78
same,pKd,[6]; [32],below the threshold
same,pKd,[7]; [32],below the threshold
same,pKd,[8]; [32],below the threshold
same,pKd,[9]; [32],below the threshold
same,pKd,[10]; [32],below the threshold
same,pKd,[11]; [32],below the threshold
same,pKd,[12]; [32],below the threshold
same,pKd,[13]; [32],3.68
same,pKd,[14]; [32],below the threshold
same,pKd,[15]; [32],below the threshold
same,pKd,[16]; [32],3.5
same,pKd,[17]; [32],3.57
same,pKd,[18]; [32],4.56
same,pKd,[19]; [32],5.97
same,pKd,[20]; [32],4.48
same,pKd,[21]; [32],below the threshold
same,pKd,[22]; [32],3.86
same,pKd,[23]; [32],below the threshold
same,pKd,[24]; [32],4.92
same,pKd,[25]; [32],5.56
same,pKd,[26]; [32],4.45
same,pKd,[27]; [32],5.17
same,pKd,[28]; [32],5.22
same,pKd,[29]; [32],5.73
same,pKd,[30]; [32],below the threshold
same,pKd,[31]; [32],below the threshold
"PKRPFVESNV [TANC2, Q9HCD6]",pKd,[1]; [32],below the threshold
same,pKd,[2]; [32],below the threshold
same,pKd,[3]; [32],below the threshold
same,pKd,[4]; [32],below the threshold
same,pKd,[5]; [32],3.67
same,pKd,[6]; [32],below the threshold
same,pKd,[7]; [32],below the threshold
same,pKd,[8]; [32],below the threshold
same,pKd,[9]; [32],below the threshold
same,pKd,[10]; [32],below the threshold
same,pKd,[11]; [32],3.68
same,pKd,[12]; [32],below the threshold
same,pKd,[13]; [32],below the threshold
same,pKd,[14]; [32],3.57
same,pKd,[15]; [32],below the threshold
same,pKd,[16]; [32],3.7
same,pKd,[17]; [32],4.55
same,pKd,[18]; [32],below the threshold
same,pKd,[19]; [32],4.84
same,pKd,[20]; [32],below the threshold
same,pKd,[21]; [32],below the threshold
same,pKd,[22]; [32],below the threshold
same,pKd,[23]; [32],below the threshold
same,pKd,[24]; [32],4.34
same,pKd,[25]; [32],4.75
same,pKd,[26]; [32],4.59
same,pKd,[27]; [32],4.79
same,pKd,[28]; [32],4.37
same,pKd,[29]; [32],4.8
same,pKd,[30]; [32],below the threshold
same,pKd,[31]; [32],below the threshold
"GFGEERESIL [KIDINS220, Q9ULH0]",pKd,[1]; [33],below the threshold
same,pKd,[2]; [33],below the threshold
same,pKd,[3]; [33],4.13
same,pKd,[4]; [33],below the threshold
same,pKd,[5]; [33],below the threshold
same,pKd,[6]; [33],below the threshold
same,pKd,[7]; [33],below the threshold
same,pKd,[8]; [33],below the threshold
same,pKd,[9]; [33],below the threshold
same,pKd,[10]; [33],below the threshold
same,pKd,[11]; [33],below the threshold
same,pKd,[12]; [33],below the threshold
same,pKd,[13]; [33],3.63
same,pKd,[14]; [33],3.88
same,pKd,[15]; [33],3.48
same,pKd,[16]; [33],4.08
same,pKd,[17]; [33],below the threshold
same,pKd,[18]; [33],4.66
same,pKd,[19]; [33],5.32
same,pKd,[20]; [33],4.67
same,pKd,[21]; [33],3.77
same,pKd,[22]; [33],4.35
same,pKd,[23]; [33],below the threshold
same,pKd,[24]; [33],5.22
same,pKd,[25]; [33],below the threshold
same,pKd,[26]; [33],below the threshold
same,pKd,[27]; [33],4.56
same,pKd,[28]; [33],4.31
same,pKd,[29]; [33],5.59
same,pKd,[30]; [33],below the threshold
same,pKd,[31]; [33],below the threshold
